{"source": "patent US20240133885A1", "key": {"[1]": {"biological_target": "J6MO-(vL-vH)-MYC-28z-T2A-Pac", "assay": "NLuc assay, supernatant on NK92MI cells expressing the CAR (no CAR 89)"}, "[2]": {"biological_target": "HIV1 envelop glycoprotein gp120 (HIV1)", "assay": "Luc assay, supernatant on HL2/3 cells expressing HIV1 gp120 (control 5700)"}, "Lym1 [3]": {"biological_target": "Lym1", "assay": "Luc assay, supernatant on BC-1 cells"}, "Lym1 [4]": {"biological_target": "Lym1", "assay": "Luc assay, supernatant on BC-3 cells"}, "Lym1 [5]": {"biological_target": "Lym1", "assay": "Luc assay, supernatant on MM1S cells"}, "Lym1 [6]": {"biological_target": "Lym1", "assay": "Luc assay, supernatant on Raji cells"}, "Lym1 [7]": {"biological_target": "Lym1", "assay": "Luc assay, supernatant on U266 cells"}, "Lym1 [8]": {"biological_target": "Lym1", "assay": "Luc assay, supernatant on BV173 cells"}, "Lym1 [9]": {"biological_target": "Lym1", "assay": "Luc assay, supernatant on JSC-1 cells"}, "Lym1 [10]": {"biological_target": "Lym1", "assay": "Luc assay, supernatant on BCBL-1 cells"}, "[11]": {"biological_target": "CD20-GA10-(vL-vH)-MYC-BBz-T2A-PAC", "assay": "Luc assay, supernatant on Jurkat cells expressing the CAR (parental 484)"}, "[12]": {"biological_target": "CD20-GA10-(vL-vH)-MYC-BBz-T2A-PAC", "assay": "Luc assay, supernatant on NK92MI cells expressing the CAR (parental 510)"}, "[13]": {"biological_target": "CD200R-huDx182-(vL-vH)-Myc-BBz-T2A-PAC", "assay": "NLuc assay, supernatant on 293FT cells transfected with the CAR"}, "[14]": {"biological_target": "FMC63-(vL-vH)-Myc-BBz-T2A-Pac", "assay": "NLuc assay, supernatant on 293FT cells transfected with the CAR"}, "Amyloid [15]": {"biological_target": "Amyloid", "assay": "Luc assay, supernatant on BC-3 cells"}, "Amyloid [16]": {"biological_target": "Amyloid", "assay": "Luc assay, supernatant on MM1S cells"}, "Amyloid [17]": {"biological_target": "Amyloid", "assay": "Luc assay, supernatant on U266 cells"}, "Amyloid [18]": {"biological_target": "Amyloid", "assay": "Luc assay, supernatant on BV173 cells"}, "Amyloid [19]": {"biological_target": "Amyloid", "assay": "Luc assay, supernatant on JSC-1 cells"}, "Amyloid [20]": {"biological_target": "Amyloid", "assay": "Luc assay, supernatant on BCBL-1 cells"}}, "data": [{"substance": "BCMA-ECD-GGSG-NLuc-4xFlag-2xStreptag-8xHis-T2A-Pac (from UniProt Q02223 1-54) (receptor)", "values": [{"measurement": "Mean Luc activity", "setting": "[1]", "value": 602}]}, {"substance": "CD8SP-HIV1-3BNC117-(vL-vH)-GGSG-NLuc-4xFLAG-x2STREP-8xHis-T2A-PAC (scFv)", "values": [{"measurement": "Mean Luc activity", "setting": "[2]", "value": 8870}]}, {"substance": "CD8SP-HIV1-VR-C01-(vL-vH)-GGSG-NLuc-4xFLAG-x2STREP-8xHis-T2A-PAC (scFv)", "values": [{"measurement": "Mean Luc activity", "setting": "[2]", "value": 9330}]}, {"substance": "CD8SP-HIV1-X5-(vL-vH)-GGSG-NLuc-4xFLAG-x2STREP-8xHis-T2A-PAC (scFv)", "values": [{"measurement": "Mean Luc activity", "setting": "[2]", "value": 12900}]}, {"substance": "CD8SP-Lym1(vL-vH)-GGSG-NLuc-AcV5 (scFv)", "values": [{"measurement": "MEAN LUC ACTIVITY", "setting": "Lym1 [3]", "value": 7390}, {"measurement": "Luc activity", "setting": "Lym1 [4]", "value": 11700}, {"measurement": "MEAN LUC ACTIVITY", "setting": "Lym1 [4]", "value": 11700}, {"measurement": "Luc activity", "setting": "Lym1 [5]", "value": 1580}, {"measurement": "MEAN LUC ACTIVITY", "setting": "Lym1 [5]", "value": 1580}, {"measurement": "MEAN LUC ACTIVITY", "setting": "Lym1 [6]", "value": 580000}, {"measurement": "Luc activity", "setting": "Lym1 [7]", "value": 258}, {"measurement": "MEAN LUC ACTIVITY", "setting": "Lym1 [7]", "value": 258}, {"measurement": "Luc activity", "setting": "Lym1 [8]", "value": 5560}, {"measurement": "MEAN LUC ACTIVITY", "setting": "Lym1 [8]", "value": 5560}, {"measurement": "Luc activity", "setting": "Lym1 [9]", "value": 6770}, {"measurement": "MEAN LUC ACTIVITY", "setting": "Lym1 [9]", "value": 6770}, {"measurement": "Luc activity", "setting": "Lym1 [10]", "value": 7780}, {"measurement": "MEAN LUC ACTIVITY", "setting": "Lym1 [10]", "value": 7780}]}, {"substance": "CD20-ECx2-ECD-GGSG-TurboLuc16-4xFlag-2xStreptag-8xHis-T2A-Pac (receptor)", "values": [{"measurement": "Mean Luc activity", "setting": "[11]", "value": 7610}, {"measurement": "Mean Luc activity", "setting": "[12]", "value": 1420}]}, {"substance": "CD200R-ECD-GGSG-NLuc-4xFlag-2xStreptag-8xHis-T2A-Pac (receptor)", "values": [{"measurement": "Mean Luc activity", "setting": "[13]", "value": 18700}]}, {"substance": "SLAMF7-CS1-ECD-GGSG-NLuc-4xFlag-2xStreptag-8xHis-T2A-Pac (receptor)", "values": [{"measurement": "Mean Luc activity", "setting": "[14]", "value": 37800}]}, {"substance": "SP-Amyloid-158-(vL-vH)-GGSG-NLuc-4xFLAG-x2STREP-8xHis-T2A-PAC (scFv)", "values": [{"measurement": "Luc activity", "setting": "Amyloid [15]", "value": 3110}, {"measurement": "Luc activity", "setting": "Amyloid [16]", "value": 8170}, {"measurement": "Luc activity", "setting": "Amyloid [17]", "value": 3930}, {"measurement": "Luc activity", "setting": "Amyloid [18]", "value": 6220}, {"measurement": "Luc activity", "setting": "Amyloid [19]", "value": 8230}, {"measurement": "Luc activity", "setting": "Amyloid [20]", "value": 5690}]}]}
